{
  "source": "patent US20260008856A1",
  "about": "“METHODS OF TREATING DISEASE USING ANTI-IL1RAP ANTIBODIES AND ANTIBODY DRUG CONJUGATES” (Bluefin Biomedicine, Inc., priority 2022, published 2026)",
  "molecules": {"B1": {"name": "tralokinumab: IL-13 neutralizing antibody, produced by Bluefin Biomedicine according to the published protein sequence (antibody, chains of the INN, looked up, V domains shown)", "VH": "QVQLVQSGAEVKKPGASVKVSCKASGYTFTNYGLSWVRQAPGQGLEWMGWISANNGDTNYGQEFQGRVTMTTDTSTSTAYMELRSLRSDDTAVYYCARDSSSSWARWFFDLWGRGTLVTVSS", "VL": "SYVLTQPPSVSVAPGKTARITCGGNIIGSKLVHWYQQKPGQAPVLVIYDDGDRPSGIPERFSGSNSGNTATLTISRVEAGDEADYYCQVWDTGSDPVVFGGGTKLTVL"}},
  "test_system": "TARC level in PBMCs stimulated with HDM and IL-13",
  "test": "TARC level in PBMCs treated by HDM and IL-13",
  "assay_type": "cell-based, human",
  "conditions": "HDM 10 ug/ml, IL-13 0.5 nM; tralokinumab 10 to 0.16 ug/ml; BFB759 1 ug/ml in combination",
  "protocol": "0.2 million PBMCs in 100 ul medium (RPMI1640, 10% heat-inactivated FBS) were added to each well of 96 well cell culture plate. BFB759 at multiple concentrations in 50 ul medium was added to the wells. The cells were incubated in the incubator for 45 min. Then, 50 ul HDM solution (final concentration 10 ug/ml) was added to the wells. After 7 days incubation, the supernatant was transferred to a new 96 well plate, and used in TARC ELISA right away, or frozen in −80 C freezer for ELISA later. For the combination studies of BFB759 with other drugs, the single agent or combination of drugs were added to the PBMCs, incubated for 45 min, then HDM solution, or HDM and IL-4 or IL-13 solution were added to the wells. The assay was incubated for 7 days, and the supernatant was harvested for TARC ELISA.\nIn the data shown in FIG. 16, HDM was used at 10 ug/ml, IL-13 was used at 0.5 nM, BFB759 was used at 1 ug/ml, tralokinumab was titrated from 10 ug/ml to 0.16 ug/ml (4 fold dilution, 4 series). Data shown are mean±s.d.",
  "data": [
    {"molecule": "B1", "values": [
      {"measurement": "inhibition of TARC level in HDM and IL-13 stimulated cells", "value": "dose dependent inhibition"}
    ]}
  ]
}
